The values that follow are results of earlier work, collected in article PMC7020651.

Data set [1] has as its target Histone H4 1-12 (Homo sapiens) (UniProt P62805).
Data set [2] concerns the target Histone H4 (Homo sapiens) (UniProt P62805). Briefly: ITC. On the technique in general: Isothermal titration calorimetry measures the heat released or taken up as one component is titrated into another.

On to P/CAF bromodomain (from UniProt Q92831), for which the Kd (commonly the concentration at which binding is half-saturated) in data set [1] was 350 µM.
Take “TAFII250 tandem bromodomains (from UniProt P21675)”: the dissociation constant (Kd) in data set [2] was 40 µM.
